Experiment [1] deals with T1, human IL-1β (human, UniProt P01584 117-269). Description: cell-based or functional assay.
The target in experiment [2] is T1, human IL-1β. Description: cell-based or functional assay. The source holds these as a separate data set.
For experiment [3], the target named is T1, human IL-1β. Put plainly: SPR (BIAcore), antibody captured on protein A, human IL-1β flowed; HBS-EP pH 7.4, 25 C. As for the experimental part: BIAcore™ is an automated biosensor system that measures molecular interactions. (Karlsson, et al. (1991) J. Immunol. Methods 145: 229-240). In these experiments antibody was captured to a surface at low density on a BIAcore™ chip. Ethyl-dimethylaminopropyl-carbodiimide (EDC) was used to couple reactive amino groups to protein A to a flow cell of a carboxy-methyl (CM5) BIAcore sensor chip. Protein A was diluted in sodium acetate buffer, pH 4.5, and immobilized on a flow cell of a CM5 chip using EDC to yield 1000 response units. Unreacted sites were blocked with ehanolamine. A flow rate of 60 μl/min was used. […] Elution was performed with glycine-HCl, pH 1.5. BIAevaluation™ was used to analyze the kinetic data.
(In general: In SPR one partner is held on a chip, and binding of the other changes the refractive index at the surface.)

The target in experiment [4] is T1, human IL-1β. Description: SPR (BIAcore), captured antibody, human IL-1β flowed; protocol for Mu007 as in PCT/US02/21281; HBS-EP pH 7.4, 25 C.

B1: W18 (IgG1) (antibody, V domains shown)
VH: QVQLVQSGAEVKKPGSSVKVSCKASGYTFDRYWIEWVRQAPGQGLEWMGEILPGSGTINYNEKFKGRVTITADKSTSTAYMELSSLRSEDTAVYYCARMYYDYDQGFDNWGQGTLVTVSS
VL: DIQMTQSPSSLSASVGDRVTITCKFSQDIDRFLSWFQQKPGKAPKSLIYRVKRLVDGVPSRFSGSGSGTDFTLTISSLQPEDFATYYCVQYDEFPYTFGGGTKVEIKR
notes: humanized, IgG1 kappa
B1: in experiment [1], the “Fold Increase in Potency (against Mu007), T1165.17 cell proliferation assay” value (from here on “Fold Increase in Potency (against Mu007)”) was 10 fold and the “IC50, T1165.17 cell proliferation assay (human IL-1β 0.3 pM)” value (shortened to “IC50, T1165.17 cell proliferation assay”) amounted to 2 pM. In addition, in experiment [2], the “IL-6 Serum Levels in mice, human IL-1β 3 µg/kg + antibody 13 µg/kg” value turned out to be 398 pg/mL; the “IL-6 Serum Levels in mice, human IL-1β 3 µg/kg + antibody 27 µg/kg” value is 232 pg/mL; the “IL-6 Serum Levels in mice, human IL-1β 3 µg/kg + antibody 81 µg/kg” value is 77.9 pg/mL; the “IL-6 Serum Levels in mice, human IL-1β 3 µg/kg + antibody 270 µg/kg” value came out at 18 pg/mL. Moreover, in experiment [3], the affinity, expressed as Kd, was 4.2 pM; the koff (in general, a measure of how fast the partners let go of each other) stood at 0.00018 s⁻¹; the kon (as a rule, the rate constant with which the complex forms) amounted to 4.1e+07 M⁻¹ s⁻¹.

B2: W20 (IgG1) (antibody, V domains shown)
VH: QVQLVQSGAEVKKPGSSVKVSCKASGYTFDRYWIEWVRQAPGQGLEWMGEILPGSGDINYNEKFKGRVTITADKSTSTAYMELSSLRSEDTAVYYCARMYYDYDQGFDYWGQGTLVTVSS
VL: DIQMTQSPSSLSASVGDRVTITCKFSQDIDRFLSWFQQKPGKAPKSLIYRVKRLVDGVPSRFSGSGSGTDFTLTISSLQPEDFATYYCVQYDEFPYTFGGGTKVEIKR
notes: humanized, IgG1 kappa
With B2, in experiment [1], the “Fold Increase in Potency (against Mu007)” value stood at 17 fold and the “IC50, T1165.17 cell proliferation assay” value turned out to be 1.2 pM. Besides, in experiment [3], the Kd (commonly the equilibrium constant for the complex coming apart) worked out at 2.7 pM, the koff was found to be 0.0001 s⁻¹ and the kon is 3.8e+07 M⁻¹ s⁻¹.

B3: Mu007 (antibody, V domains shown)
VH: QVQLQQSGAELMKPGASVKISCKATGYTFSRYWIEWIKQRPGHGLEWIGEILPGNGNINYNEKFKGKATISADSSSETAYMQLSSLSSEDSAVYYCSTIYYDYDQGFTYWGQGTLVTVSA
VL: DIKMTQSPSSMYASLGERVTITCKASQDIDRYLSWFQQKPGKSPKTLIYRVKRLVDGVPSRFSGSASGQDYSLTISSLQYEDMGIYYCLQYDEFPYTFGGGTKLEIK
As for B3, in experiment [1], the “Fold Increase in Potency (against Mu007)” value turned out to be 1 fold and the “IC50, T1165.17 cell proliferation assay” value is 20.6 pM. In experiment [4], this molecule displayed a dissociation constant Kd of 6.2 pM, a dissociation rate constant (koff) of 0.00016 s⁻¹ and a kon of 2.6e+07 M⁻¹ s⁻¹.

B4: W17 (IgG1) (antibody)
heavy: not shown
light: DIQMTQSPSSLSASVGDRVTITCKFSQDIDRFLSWFQQKPGKAPKSLIYRVKRLVDGVPSRFSGSGSGTDFTLTISSLQPEDFATYYCVQYDEFPYGFGGGTKVEIKRTVAAPSVFIFPPSDEQLKSGTASVVCLLNNFYPREAKVQWKVDNALQSGNSQESVTEQDSKDSTYSLSSTLTLSKADYEKHKVYACEVTHQGLSSPVTKSFNRGEC
notes: humanized, IgG1 kappa
Consider B4, for which, in experiment [1], the “Fold Increase in Potency (against Mu007)” value is 11 fold and the “IC50, T1165.17 cell proliferation assay” value amounted to 1.8 pM. In addition, in experiment [2], the “IL-6 Serum Levels in mice, human IL-1β 3 µg/kg + antibody 13 µg/kg” value was 567 pg/mL; the “IL-6 Serum Levels in mice, human IL-1β 3 µg/kg + antibody 27 µg/kg” value was determined as 410 pg/mL; the “IL-6 Serum Levels in mice, human IL-1β 3 µg/kg + antibody 81 µg/kg” value came out at 114 pg/mL; the “IL-6 Serum Levels in mice, human IL-1β 3 µg/kg + antibody 270 µg/kg” value came to 27.5 pg/mL. In experiment [3], the dissociation constant Kd amounted to 2.8 pM, the koff was determined as 9e-05 s⁻¹ and the kon was 3.1e+07 M⁻¹ s⁻¹.

B5: W17 (IgG4) (antibody)
heavy: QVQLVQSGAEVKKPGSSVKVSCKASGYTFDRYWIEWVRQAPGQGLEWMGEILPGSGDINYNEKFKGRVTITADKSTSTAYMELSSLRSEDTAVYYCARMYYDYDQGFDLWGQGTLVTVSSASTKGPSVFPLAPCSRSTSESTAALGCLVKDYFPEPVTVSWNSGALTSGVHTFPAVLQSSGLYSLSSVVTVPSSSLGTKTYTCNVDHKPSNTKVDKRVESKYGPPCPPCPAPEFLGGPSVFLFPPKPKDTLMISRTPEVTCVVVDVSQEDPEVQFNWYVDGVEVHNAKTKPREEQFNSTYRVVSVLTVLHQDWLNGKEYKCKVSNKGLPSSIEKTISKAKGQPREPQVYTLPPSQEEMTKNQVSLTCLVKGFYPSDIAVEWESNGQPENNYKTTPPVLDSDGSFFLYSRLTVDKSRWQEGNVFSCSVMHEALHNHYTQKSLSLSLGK
light: DIQMTQSPSSLSASVGDRVTITCKFSQDIDRFLSWFQQKPGKAPKSLIYRVKRLVDGVPSRFSGSGSGTDFTLTISSLQPEDFATYYCVQYDEFPYGFGGGTKVEIKRTVAAPSVFIFPPSDEQLKSGTASVVCLLNNFYPREAKVQWKVDNALQSGNSQESVTEQDSKDSTYSLSSTLTLSKADYEKHKVYACEVTHQGLSSPVTKSFNRGEC
notes: humanized, IgG4 kappa
As for B5, in experiment [1], the “Fold Increase in Potency (against Mu007)” value amounted to 12 fold and the “IC50, T1165.17 cell proliferation assay” value was determined as 1.7 pM. In experiment [3], the affinity, expressed as Kd, was 3.3 pM; the off-rate constant (koff) is 0.0001 s⁻¹; the on-rate (kon) turned out to be 3.2e+07 M⁻¹ s⁻¹.

B6: W13 (IgG1) (antibody, V domains shown)
VH: QVQLVQSGAEVKKPGSSVKVSCKASGYTFDRYWIEWVRQAPGQGLEWMGEILPGSGDINYNEKFKGRVTITADKSTSTAYMELSSLRSEDTAVYYCARMYYDYDQGFDYWGQGTLVTVSS
VL: DIQMTQSPSSLSASVGDRVTITCKFSQDIDRFLTWFQQKPGKAPKSLIYRVKRLVDGVPSRFSGSGSGTDFTLTISSLQPEDFATYYCIQYDEFPYTFGGGTKVEIKR
notes: humanized, IgG1 kappa
For B6, in experiment [1], the “Fold Increase in Potency (against Mu007)” value turned out to be 17 fold and the “IC50, T1165.17 cell proliferation assay” value was 1.2 pM. Further, in experiment [2], the “IL-6 Serum Levels in mice, human IL-1β 3 µg/kg + antibody 13 µg/kg” value came out at 655 pg/mL; the “IL-6 Serum Levels in mice, human IL-1β 3 µg/kg + antibody 27 µg/kg” value was found to be 277 pg/mL; the “IL-6 Serum Levels in mice, human IL-1β 3 µg/kg + antibody 81 µg/kg” value came out at 129 pg/mL; the “IL-6 Serum Levels in mice, human IL-1β 3 µg/kg + antibody 270 µg/kg” value was determined as 23.4 pg/mL. In experiment [3], this molecule yielded a Kd of 2.8 pM, a koff of 0.00017 s⁻¹ and a kon of 6.1e+07 M⁻¹ s⁻¹.

B7: U43 (IgG1) (antibody, V domains shown)
VH: QVQLVQSGAEVKKPGSSVKVSCKASGYTFDRYWIEWVRQAPGQGLEWMGEILPGSGDINYNEKFKGRVTITADKSTSTAYMELSSLRSEDTAVYYCARMYYDYDQGFSLWGQGTLVTVSS
VL: DIQMTQSPSSLSASVGDRVTITCKASQDIDRFLSWFQQKPGKAPKSLIYRVKRLVDGVPSRFSGSGSGTDFTLTISSLQPEDFATYYCVQYDEFPYTFGGGTKVEIKR
notes: humanized, IgG1 kappa
In the case of B7, in experiment [1], the “Fold Increase in Potency (against Mu007)” value was determined as 5 fold and the “IC50, T1165.17 cell proliferation assay” value stood at 4 pM. Further, in experiment [2], the “IL-6 Serum Levels in mice, human IL-1β 3 µg/kg + antibody 13 µg/kg” value turned out to be 756 pg/mL; the “IL-6 Serum Levels in mice, human IL-1β 3 µg/kg + antibody 27 µg/kg” value is 509 pg/mL; the “IL-6 Serum Levels in mice, human IL-1β 3 µg/kg + antibody 81 µg/kg” value was found to be 186 pg/mL; the “IL-6 Serum Levels in mice, human IL-1β 3 µg/kg + antibody 270 µg/kg” value is 39.3 pg/mL. Besides, in experiment [3], the Kd is 4.7 pM, the koff amounted to 0.00022 s⁻¹ and the kon came out at 4.7e+07 M⁻¹ s⁻¹.

The record behind these values is patent US20060140932A1 (APPLIED MOLECULAR EVOLUTION, published 2006).
